# Measured values published in patent US20090031441A1 (NATIONAL UNIVERSITY CORPORATION NAGOYA UNIVERSITY, published 2009).
# T1: GAI (Arabidopsis DELLA protein), yeast two-hybrid prey in pGADT7 AD vector (Arabidopsis, UniProt Q9LQT8 1-533)
# T1 construct: also called AtDELLA
# T1 sequence (looked up): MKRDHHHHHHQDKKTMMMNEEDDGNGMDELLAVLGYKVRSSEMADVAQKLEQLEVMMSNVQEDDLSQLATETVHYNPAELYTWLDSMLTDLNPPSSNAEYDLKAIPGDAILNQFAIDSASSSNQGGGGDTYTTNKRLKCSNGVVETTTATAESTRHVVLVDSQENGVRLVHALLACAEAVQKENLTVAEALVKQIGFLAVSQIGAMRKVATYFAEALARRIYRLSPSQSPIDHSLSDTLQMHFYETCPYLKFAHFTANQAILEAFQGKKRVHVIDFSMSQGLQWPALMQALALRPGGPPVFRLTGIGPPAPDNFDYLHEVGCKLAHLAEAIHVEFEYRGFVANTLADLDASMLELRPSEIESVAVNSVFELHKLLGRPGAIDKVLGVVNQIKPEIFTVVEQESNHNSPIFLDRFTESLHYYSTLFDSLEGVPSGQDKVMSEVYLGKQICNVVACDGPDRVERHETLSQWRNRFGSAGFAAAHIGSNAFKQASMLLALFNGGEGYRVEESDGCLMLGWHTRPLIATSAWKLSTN
# T2: RGL1 (Arabidopsis DELLA protein), yeast two-hybrid prey in pGADT7 AD vector (Arabidopsis, UniProt Q9C8Y3 1-511)
# T2 construct: also called AtDELLA
# T2 sequence (looked up): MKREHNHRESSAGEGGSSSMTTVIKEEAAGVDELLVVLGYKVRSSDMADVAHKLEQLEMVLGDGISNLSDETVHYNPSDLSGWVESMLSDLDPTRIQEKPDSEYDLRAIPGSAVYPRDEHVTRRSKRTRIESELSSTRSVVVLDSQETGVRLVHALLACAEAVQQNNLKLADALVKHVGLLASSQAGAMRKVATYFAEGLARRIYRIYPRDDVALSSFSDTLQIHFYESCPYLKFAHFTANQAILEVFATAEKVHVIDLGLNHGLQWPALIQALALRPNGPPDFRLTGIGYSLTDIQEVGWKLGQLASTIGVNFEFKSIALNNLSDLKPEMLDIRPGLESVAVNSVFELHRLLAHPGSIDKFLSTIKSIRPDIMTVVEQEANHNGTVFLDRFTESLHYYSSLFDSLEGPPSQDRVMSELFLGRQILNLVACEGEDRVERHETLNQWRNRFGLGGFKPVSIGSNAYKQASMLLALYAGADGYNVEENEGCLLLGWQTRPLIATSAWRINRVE
# T3: RGL3 (Arabidopsis DELLA protein), yeast two-hybrid prey in pGADT7 AD vector (Arabidopsis, UniProt Q9LF53 1-523)
# T3 construct: also called AtDELLA
# T3 sequence (looked up): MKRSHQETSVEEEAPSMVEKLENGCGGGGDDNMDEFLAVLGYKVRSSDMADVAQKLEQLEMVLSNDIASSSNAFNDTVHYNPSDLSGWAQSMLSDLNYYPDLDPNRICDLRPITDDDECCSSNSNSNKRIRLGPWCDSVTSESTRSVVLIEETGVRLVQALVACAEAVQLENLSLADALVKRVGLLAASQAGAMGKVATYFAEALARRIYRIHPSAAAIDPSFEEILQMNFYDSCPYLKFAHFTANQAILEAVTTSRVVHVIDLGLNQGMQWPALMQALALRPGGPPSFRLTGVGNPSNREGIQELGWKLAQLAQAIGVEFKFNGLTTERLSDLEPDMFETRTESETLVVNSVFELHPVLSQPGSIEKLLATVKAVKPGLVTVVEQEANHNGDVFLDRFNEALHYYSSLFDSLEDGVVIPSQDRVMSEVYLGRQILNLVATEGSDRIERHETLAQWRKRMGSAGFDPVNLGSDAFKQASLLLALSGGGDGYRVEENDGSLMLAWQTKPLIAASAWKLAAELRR
# What was measured:
# [1] = target: T1, GAI (Arabidopsis DELLA protein), yeast …; assay: yeast two-hybrid without GA (FIG. 11); member GAI named in the legend of FIG. 11
# Protocol: (§1) Arabidopsis has five DELLA proteins (RGA, GAI, RGL1, RGL2, and RGL3; collectively designated AtDELLA; Fleet, C. M., and Sun, T.-P. (2005) Curr. Opin. Plant Biol., 8, 77-85; Dill, A., and Sun, T. (2001) Genetics, 159, 777-785); therefore, there are 15 possible combinations of GID1/DELLA proteins. To verify the positive interactions between AtGID1-AtDELLA, two experiments were conducted using the yeast two hybrid (Y2H) system. In the first experiment (Assay A), a viable colony assay using a defined medium in which only positive clones would survive was carried out. In the second experiment (Assay B), β-galactosidase activity was measured, as reporter gene product of AtGID1-AtDELLA interactions.
# (§2) BD Matchmaker Two-hybrid System 3 (Clontech, Palo Alto, Calif., USA; now part of Takara Bio) was used in the Y2H experiments. After confirming the PCR products of the AtGID1 genes by sequencing, PCR products were cloned into pGBKT7 DNA-BD shuttle vector to construct bait plasmids. […]
# (§3) Thus, GA₄ (10⁻⁵ M) was used and added to the medium. […] As described above, all AtGID1-AtDELLA interactions were detected in a GA-dependent manner; however, interactions between AtGID1b and some AtDELLAs were detected, albeit weakly, in the absence of GA (FIG. 11).
# [2] = target: T2, RGL1 (Arabidopsis DELLA protein), yeast …; assay: yeast two-hybrid without GA (FIG. 11); member RGL1 named in the legend of FIG. 11
# Protocol: as §1, §2, §3
# [3] = target: T2, RGL1 (Arabidopsis DELLA protein), yeast …; assay: yeast two-hybrid system
# Protocol: as §1
# (§4) BD Matchmaker Two-hybrid System 3 (Clontech, Palo Alto, Calif., USA; now part of Takara Bio) was used in the Y2H experiments. After confirming the PCR products of the AtGID1 genes by sequencing, PCR products were cloned into pGBKT7 DNA-BD shuttle vector to construct bait plasmids. Likewise, the entire coding region of each AtDELLA gene (GAI including EcoRI and XhoI sites; RGA including BamHI and XhoI sites; RGL1 including SmaI and SacI sites; RGL2 including SmaI and ClaI sites; RGL3 including SmaI and XhoI sites on the ends) was cloned into pGADT7 AD vector. The S. cerevisiae AH109 (MATa) strain or Y187 (MATα) strain was used, and DNA-BD and AD vector cassettes were used as negative controls. The details of the method used for the yeast assay are as described in the manufacturer's instructions (Yeast Protocols Handbook #PT3024-1; http://www.clontech.com/). Experiments were carried out four times independently. Similar results were obtained each time.
# [4] = target: T3, RGL3 (Arabidopsis DELLA protein), yeast …; assay: yeast two-hybrid system
# Protocol: as §1, §4
binding result [1],binding result [2],binding result [3],binding result [4],Binder
binds,binds,,,"AtGID1b (At3g63010), yeast two-hybrid bait in pGBKT7 DNA-BD vector (receptor, not shown: small tags and cut ends, Bait fusion for the Y2H assays; also called Arabidopsis GID1) MAGGNEVNLNECKRIVPLNTWVLISNFKLAYKVLRRPDGSFNRDLAEFLDRKVPANSFPLDGVFSFDHVDSTTNLLTRIYQPASLLHQTRHGTLELTKPLSTTEIVPVLIFFHGGSFTHSSANSAIYDTFCRRLVTICGVVVVSVDYRRSPEHRYPCAYDDGWNALNWVKSRVWLQSGKDSNVYVYLAGDSSGGNIAHNVAVRATNEGVKVLGNILLHPMFGGQERTQSEKTLDGKYFVTIQDRDWYWRAYLPEGEDRDHPACNPFGPRGQSLKGVNFPKSLVVVAGLDLVQDWQLAYVDGLKKTGLEVNLLYLKQATIGFYFLPNNDHFHCLMEELNKFVHSIEDSQSKSSPVLLTP"
,,binds,binds,"AtGID1a (At3g05120), yeast two-hybrid bait in pGBKT7 DNA-BD vector (receptor, not shown: small tags and cut ends, Bait fusion for the Y2H assays (BD Matchmaker Two-hybrid System 3); also called Arabidopsis GID1) MAASDEVNLIESRTVVPLNTWVLISNFKVAYNILRRPDGTFNRHLAEYLDRKVTANANPVDGVFSFDVLIDRRINLLSRVYRPAYADQEQPPSILDLEKPVDGDIVPVILFFHGGSFAHSSANSAIYDTLCRRLVGLCKCVVVSVNYRRAPENPYPCAYDDGWIALNWVNSRSWLKSKKDSKVHIFLAGDSSGGNIAHNVALRAGESGIDVLGNILLNPMFGGNERTESEKSLDGKYFVTVRDRDWYWKAFLPEGEDREHPACNPFSPRGKSLEGVSFPKSLVVVAGLDLIRDWQLAYAEGLKKAGQEVKLMHLEKATVGFYLLPNNNHFHNVMDEISAFVNAEC"
